Assay results from US20220259330A1 (SUNSHINE GUOJIAN PHARMACEUTICAL SHANGHAI, published 2022).
Changes are numbered by the printed parent chain. Numbers in names are those of the source. Where “and” joins values, the source holds several entries; their conditions need not be identical. Identical values can stand only once. Values belong to the binder of their own block, whether it stands above or below them.

Assays:
PD1-His [1] = target: T1, PD1-His (human, UniProt Q15116 25-170); test: ELISA, plate coated with PD1-His
T1 construct: extracellular domain; In-house protein; also called extracellular domain protein of human PD-1 with a 6*His tag
T1 sequence (Q15116 other isoform, or with tags, fused parts or gaps): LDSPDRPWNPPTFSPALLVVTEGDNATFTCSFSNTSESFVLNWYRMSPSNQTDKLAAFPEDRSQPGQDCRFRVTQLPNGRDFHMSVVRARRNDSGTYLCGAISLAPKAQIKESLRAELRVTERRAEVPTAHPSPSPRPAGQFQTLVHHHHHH

[2] = target: T2, TGF-β1 (Sino Biological, Cat. No. 10804-HNAC) (UniProt P01137 279-390); test: bridging ELISA: TGF-β1 coated, antibody titrated, biotinylated human PD-1 and streptavidin-HRP for detection
T2 sequence (P01137 279-390 limits assumed): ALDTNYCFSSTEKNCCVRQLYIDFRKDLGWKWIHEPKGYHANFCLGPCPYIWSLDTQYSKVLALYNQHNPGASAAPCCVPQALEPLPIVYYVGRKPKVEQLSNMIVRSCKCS

[3] = target: T3, biotinylated human PD-1 extracellular recombinant protein (Sino Biological, Cat. No. 10377-H08H-B) (human, UniProt Q15116 25-170, biotinylated); test: as above
T3 construct: extracellular domain; Bought; detection reagent in the bridging ELISAs
T3 sequence (Q15116 25-170): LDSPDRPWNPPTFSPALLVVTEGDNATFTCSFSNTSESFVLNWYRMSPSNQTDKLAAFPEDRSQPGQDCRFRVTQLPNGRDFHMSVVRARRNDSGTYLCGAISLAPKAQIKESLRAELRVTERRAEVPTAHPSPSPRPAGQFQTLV

[4] = target: T2, TGF-β1 (Sino Biological, Cat. No. …); test: ELISA, plate coated with TGF-β1
VEGF165-His [5] = target: T4, VEGF165-His (human, UniProt P15692-4 27-191); test: ELISA, VEGF165-His coated at 10 ng/well
T4 construct: also called Human VEGF165 with a 6*His tag
T4 sequence: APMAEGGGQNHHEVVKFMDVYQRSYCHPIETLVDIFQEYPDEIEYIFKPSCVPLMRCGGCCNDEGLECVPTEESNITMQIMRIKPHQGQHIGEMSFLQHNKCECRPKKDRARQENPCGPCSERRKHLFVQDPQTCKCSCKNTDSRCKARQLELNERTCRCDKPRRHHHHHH

[6] = target: T3, biotinylated human PD-1 extracellular …; test: bridging ELISA: VEGF165 coated, antibody titrated, biotinylated human PD-1 at 200 ng/ml and streptavidin-HRP for detection
PD1-His [7] = target: T1, PD1-His; test: SPR, Biacore 8K, antibody captured on Protein A/G chip, PD1-His injected
[8] = target: T5, recombinant VEGF165 (Acrobiosystems, Cat. No. VE5-H4210) (UniProt P15692-4 27-191); test: bridging ELISA: VEGF165 coated, antibody titrated, biotinylated human PD-1 at 200 ng/ml and streptavidin-HRP for detection
T5 construct: Bought; construct not described

VEGF165-His [9] = target: T4, VEGF165-His; test: SPR, Biacore 8K, antibody captured on Protein A/G chip, VEGF165-His injected
PD1-ECD-His = target: T6, PD1-ECD-His (human, UniProt Q15116 25-170); test: ELISA, plate coated with PD1-ECD-His
T6 construct: extracellular domain; Bought; also called recombinant protein of the extracellular segment of human PD-1 with a polyhistidine tag (Sino Biological 10377-H08H); not shown: polyhistidine tag
T6 sequence (Q15116 25-170): as the sequence (Q15116 25-170) above

CD40-ECD-His = target: T7, CD40-ECD-His (human, UniProt P25942 21-193); test: ELISA, plate coated with CD40-ECD-His
T7 construct: extracellular domain; Bought; also called recombinant protein of the extracellular segment of human CD40 with a polyhistidine tag (Sino Biological 10774-H08H); not shown: polyhistidine tag
T7 sequence (P25942 21-193): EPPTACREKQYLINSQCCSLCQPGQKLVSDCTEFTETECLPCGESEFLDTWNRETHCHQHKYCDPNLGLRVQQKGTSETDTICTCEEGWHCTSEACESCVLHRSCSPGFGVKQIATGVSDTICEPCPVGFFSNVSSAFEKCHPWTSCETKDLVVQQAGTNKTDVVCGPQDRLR

LAG3-ECD-His [10] = target: T8, LAG3-ECD-His (human, UniProt P18627 23-450); test: ELISA, LAG3-ECD-His coated
T8 construct: extracellular domain; Bought; not shown: polyhistidine tag
T8 sequence (looked up): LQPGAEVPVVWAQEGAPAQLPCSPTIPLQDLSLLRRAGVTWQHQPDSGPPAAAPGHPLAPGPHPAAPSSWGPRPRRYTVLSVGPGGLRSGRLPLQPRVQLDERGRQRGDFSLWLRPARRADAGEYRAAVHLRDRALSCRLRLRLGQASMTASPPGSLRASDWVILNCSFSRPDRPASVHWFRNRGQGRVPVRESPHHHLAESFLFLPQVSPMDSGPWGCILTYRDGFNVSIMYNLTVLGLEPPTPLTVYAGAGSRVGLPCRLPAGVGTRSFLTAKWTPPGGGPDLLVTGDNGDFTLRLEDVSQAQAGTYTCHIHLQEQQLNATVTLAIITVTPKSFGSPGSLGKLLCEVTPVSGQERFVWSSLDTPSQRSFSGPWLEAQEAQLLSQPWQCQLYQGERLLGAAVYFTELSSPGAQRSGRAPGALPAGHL

LAG3-ECD-His [11] = target: T8, LAG3-ECD-His; test: ELISA, plate coated with LAG3-ECD-His
[12] = target: T3, biotinylated human PD-1 extracellular …; test: bridging ELISA: plate coated with TGF-β1, antibody titrated, detected with biotinylated human PD-1 ECD and Streptavidin-HRP; antibody first captured on plate-coated TGF-β1

EC50 (PD1-His [1]): 0.392 nM and 0.432 nM | binding result [2]: no binding
B1: 14-Hu (antibody, human IgG4 S228P, kappa, V domains shown)
VH: QVQLVQSGAEVKKPGASVKVSCKASGYSFTGYTMNWVRQAPGQGLEWIGLINPYNGDTSYNQKFKGRATVTVDKSTSTAYMELSSLRSEDTAVYYCARWRYTMDYWGQGTLVTVSS
VL: DIVLTQSPASLAVSPGQRATITCRASESVDNYGNSFMNWYQQKPGQPPKPLIYFASNLESGVPARFSGSGSRTDFTLTINPVEADDTANYYCQQNNEAPPTFGQGTKVEIKR
notes: Humanized anti-PD-1, IgG4 (S228P), kappa; also called 14-Hu-HC+14-Hu-LC

binding result [3]: no binding | EC50 [4]: 0.0711 nM and 0.0803 nM
B2: mAb127-HC+14-Hu-LC (antibody, human IgG4 S228P, kappa, V domains shown)
VH: QVQLVQSGAEVKKPGASVKVSCKASGYTFTSEWMNWVRQAPGQGLEWMGQIFPALGSTNYNEMYEGRVTMTTDTSTSTAYMELRSLRSDDTAVYYCARGIGNYALDAMDYWGQGTLVTVSS
VL: B1 VL
notes: Hybrid antibody

EC50 (PD1-His [1]): 0.625 nM and 0.975 nM | binding result (VEGF165-His [5]): no binding
B3: 20-Hu-HC+601-LC (antibody, human IgG4 S228P, kappa, V domains shown)
VH: EVQLVESGGGLVQPGGSLRLSCAASGFVFSNYDMSWVRQAPGKRLEWVATISGGGGYTYYSDSVKGRFTISRDNAKNSLYLQMNSLRAEDTAVYYCASPYGHYGFEYWGQGTLVTVSS
VL: DIQMTQSPSSLSASVGDRVTITCSASQDISNYLNWYQQKPGKAPKVLIYFTSSLHSGVPSRFSGSGSGTDFTLTISSLQPEDFATYYCQQYSTVPWTFGQGTKVEIKR
notes: Hybrid antibody

binding result [6]: no binding
B4: 601 (antibody, human IgG1, kappa, V domains shown)
VH: EVQLVESGGGLVQPGGSLRLSCAASGYTFTNYGMNWVRQAPGKGLEWVGWINTYTGEPTYAADFKRRFTFSLDTSKSTAYLQMNSLRAEDTAVYYCAKYPHYYGSSHWYFDVWGQGTLVTVSS
VL: B3 VL
notes: Anti-VEGF, IgG1, kappa; also called Bevacizumab

Kd (PD1-His [7]): 1.59 nM | koff (PD1-His [7]): 4.54e-05 s⁻¹ | kon (PD1-His [7]): 28600 M⁻¹ s⁻¹ | EC50 (PD1-His [1]): 0.308 nM and 0.331 nM | binding result [8]: no binding
B5: 20-Hu-HC+601-LC-V94L (antibody, human IgG4 S228P, kappa, V domains shown)
VH: B3 VH
VL: B3 VL with V94L

EC50 (PD1-His [1]): 0.206 nM | binding result (VEGF165-His [5]): no binding
B6: 20-Hu (antibody, human IgG4 S228P, kappa, V domains shown)
VH: B3 VH
VL: DIQMTQSPSSLSASVGDRVTITCSASQGISNFLSWYQQKPGKTVKLLIYYTSSLHSGVPSRFSGSGSGTDYTFTISSLQPEDIATYYCQQYSNLPWTFGQGTKVEIKR
notes: Humanized anti-human PD-1, IgG4 (S228P), kappa; also called 20-Humanized; 20-Hu-HC+20-Hu-LC

Kd (VEGF165-His [9]): 0.00746 nM | koff (VEGF165-His [9]): 2.91e-05 s⁻¹ | kon (VEGF165-His [9]): 3.9e+06 M⁻¹ s⁻¹
B7: 601-HC+601-LC-V94L (antibody, human IgG1, kappa, V domains shown)
VH: B4 VH
VL: B3 VL with V94L

EC50 (PD1-ECD-His): 1.02 nM | EC50 (CD40-ECD-His): 0.0956 nM
B8: 40-Fab-609-IgG4 (bispecific antibody)
heavy: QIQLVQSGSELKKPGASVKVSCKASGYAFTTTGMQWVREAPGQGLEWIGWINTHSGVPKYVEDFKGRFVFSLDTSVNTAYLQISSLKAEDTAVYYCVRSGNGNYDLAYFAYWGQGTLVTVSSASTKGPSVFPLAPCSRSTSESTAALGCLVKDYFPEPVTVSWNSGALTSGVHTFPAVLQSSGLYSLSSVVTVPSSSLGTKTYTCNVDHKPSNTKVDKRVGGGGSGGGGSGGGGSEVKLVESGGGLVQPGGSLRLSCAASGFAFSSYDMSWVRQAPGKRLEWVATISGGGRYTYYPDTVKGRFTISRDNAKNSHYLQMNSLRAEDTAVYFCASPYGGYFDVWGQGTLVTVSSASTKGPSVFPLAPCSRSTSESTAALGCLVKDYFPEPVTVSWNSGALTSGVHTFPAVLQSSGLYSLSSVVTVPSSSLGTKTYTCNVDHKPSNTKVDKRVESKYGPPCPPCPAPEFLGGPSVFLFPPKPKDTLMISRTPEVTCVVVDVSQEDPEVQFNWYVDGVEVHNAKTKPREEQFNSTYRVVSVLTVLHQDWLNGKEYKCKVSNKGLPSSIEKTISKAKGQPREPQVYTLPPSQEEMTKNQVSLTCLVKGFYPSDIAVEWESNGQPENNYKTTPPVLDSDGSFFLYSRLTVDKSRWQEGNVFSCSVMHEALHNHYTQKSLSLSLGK
light: EIVLTQSPATLSLSPGERATLSCRASQSISDYLHWYQQKPGQSPRLLIKYASHSISGIPARFSGSGSGSDFTLTISSLEPEDFAVYYCQHGHSFPWTFGQGTKVEIKRTVAAPSVFIFPPSDEQLKSGTASVVCLLNNFYPREAKVQWKVDNALQSGNSQESVTEQDSKDSTYSLSSTLTLSKADYEKHKVYACEVTHQGLSSPVTKSFNRGEC

EC50 (PD1-ECD-His): 0.172 nM | EC50 (CD40-ECD-His): 0.105 nM
B9: 609-Fab-40-IgG4 (bispecific antibody)
heavy: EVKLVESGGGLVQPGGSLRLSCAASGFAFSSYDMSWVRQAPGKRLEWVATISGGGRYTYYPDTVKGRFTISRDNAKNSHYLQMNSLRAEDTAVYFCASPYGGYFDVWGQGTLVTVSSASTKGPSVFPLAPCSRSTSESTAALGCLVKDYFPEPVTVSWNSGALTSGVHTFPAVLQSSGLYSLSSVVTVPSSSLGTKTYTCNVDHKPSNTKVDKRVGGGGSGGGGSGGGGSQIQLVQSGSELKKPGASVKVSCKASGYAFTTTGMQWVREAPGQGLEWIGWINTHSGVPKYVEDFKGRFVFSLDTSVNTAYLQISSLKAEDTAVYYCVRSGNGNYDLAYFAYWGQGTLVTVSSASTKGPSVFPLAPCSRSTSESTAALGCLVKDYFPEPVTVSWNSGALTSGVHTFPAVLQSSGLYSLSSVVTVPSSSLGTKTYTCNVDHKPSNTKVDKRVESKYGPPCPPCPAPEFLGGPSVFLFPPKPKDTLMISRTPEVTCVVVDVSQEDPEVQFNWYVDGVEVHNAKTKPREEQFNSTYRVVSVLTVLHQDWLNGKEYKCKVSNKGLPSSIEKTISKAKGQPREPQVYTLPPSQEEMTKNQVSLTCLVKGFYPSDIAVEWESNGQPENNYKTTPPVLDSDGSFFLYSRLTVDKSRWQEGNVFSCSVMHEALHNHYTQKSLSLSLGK
light: B8 light

EC50 (read off the curve) (LAG3-ECD-His [10]): ~0.1 nM | EC50 (LAG3-ECD-His [11]): 0.147 nM
B10: 5E7-Hu (antibody, human IgG4 S228P, kappa, V domains shown)
VH: EVQLVESGGGLVKPGGSLRLSCAASGFTFSDDYMAWFRQAPGKRLEWVASISHGGDYIYYADNLKGRFTISRDNAKNSLYLQMNSLRAEDTAVYFCSRDRRSIDYWGQGTLVTVSS
VL: B6 VL with S24R, G28D, F32Y, V44I, S53R, Y87F, Y91G, S92K, N93T, W96Y
notes: Humanized anti-human LAG-3, IgG4 (S228P), kappa; also called 5E7-Hu-HC+5E7-Hu-LC

binding result (PD1-ECD-His): no binding | EC50 (CD40-ECD-His): 0.11 nM
B11: Anti-CD40-Hu (antibody, human IgG4 S228P, kappa, V domains shown)
VH: QIQLVQSGSELKKPGASVKVSCKASGYAFTTTGMQWVREAPGQGLEWIGWINTHSGVPKYVEDFKGRFVFSLDTSVNTAYLQISSLKAEDTAVYYCVRSGNGNYDLAYFAYWGQGTLVTVSS
VL: EIVLTQSPATLSLSPGERATLSCRASQSISDYLHWYQQKPGQSPRLLIKYASHSISGIPARFSGSGSGSDFTLTISSLEPEDFAVYYCQHGHSFPWTFGQGTKVEIKR
notes: Humanized anti-human CD40, IgG4 (S228P), kappa; also called humanized MAb2.220

binding result (PD1-ECD-His): no binding | binding result (CD40-ECD-His): no binding
B12: Anti-CD40-Hu-HC+609-LC (antibody, human IgG4 S228P, kappa, V domains shown)
VH: B11 VH
VL: EIVLTQSPATLSLSPGERATLSCRASQSISNFLHWYQQKPGQAPRLLIKYASQSISGIPARFSGSGSGTDFTLTISSLEPEDFAVYFCQQSNSWPHTFGQGTKVEIKR
notes: Hybrid antibody

EC50 [12]: 0.278 nM | EC50 (PD1-His [1]): 0.387 nM | EC50 [4]: 0.152 nM
B13: 14-Fab-127-IgG4 (bispecific antibody)
heavy: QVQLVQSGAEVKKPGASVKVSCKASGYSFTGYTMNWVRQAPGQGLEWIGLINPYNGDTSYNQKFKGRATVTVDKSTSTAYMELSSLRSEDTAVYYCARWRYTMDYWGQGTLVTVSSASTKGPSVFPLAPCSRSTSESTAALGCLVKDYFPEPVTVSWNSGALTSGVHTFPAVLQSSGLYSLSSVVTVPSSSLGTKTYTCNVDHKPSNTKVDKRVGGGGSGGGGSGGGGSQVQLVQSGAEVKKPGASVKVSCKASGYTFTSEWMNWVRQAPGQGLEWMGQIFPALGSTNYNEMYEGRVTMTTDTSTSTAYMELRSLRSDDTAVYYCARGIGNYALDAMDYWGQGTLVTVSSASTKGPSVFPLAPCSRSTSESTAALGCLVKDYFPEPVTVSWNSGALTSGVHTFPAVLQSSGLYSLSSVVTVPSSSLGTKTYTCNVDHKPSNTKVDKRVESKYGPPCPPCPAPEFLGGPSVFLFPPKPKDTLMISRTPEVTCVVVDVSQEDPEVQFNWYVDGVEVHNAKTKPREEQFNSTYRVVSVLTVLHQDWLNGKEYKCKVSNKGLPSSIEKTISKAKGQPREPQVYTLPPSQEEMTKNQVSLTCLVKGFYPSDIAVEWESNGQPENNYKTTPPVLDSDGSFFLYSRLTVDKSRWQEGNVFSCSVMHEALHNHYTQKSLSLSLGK
light: DIVLTQSPASLAVSPGQRATITCRASESVDNYGNSFMNWYQQKPGQPPKPLIYFASNLESGVPARFSGSGSRTDFTLTINPVEADDTANYYCQQNNEAPPTFGQGTKVEIKRTVAAPSVFIFPPSDEQLKSGTASVVCLLNNFYPREAKVQWKVDNALQSGNSQESVTEQDSKDSTYSLSSTLTLSKADYEKHKVYACEVTHQGLSSPVTKSFNRGEC
